Test results reported in patent US20230078601A1 (CLEVELAND CLINIC FOUNDATION, published 2023).

Key:
11-26 = target: T1, 11-26; experiment: direct ELISA on plated overlapping 16-mer peptides of AMHR2-ED, 4D12G1 as primary antibody
T1 construct: overlapping 16-mer of human AMHR2-ED; also called p11-26; AMHR2-ED 11-26 16-mer peptide
T1 peptide: EAPGVRGSTKTLGELL
Protocol: (§1) Competitive ELISAs were used to determine the AMHR2-ED sequence recognized by the 4D12G1 mAb. A set of overlapping 16-mer peptides spanning the entire 132 amino acid sequence of human AMHR2-ED was generated. Each peptide shifted by one amino acid and all cysteine residues were replaced by serine to avoid disulfide bond formation (Thermo Fisher). Individual 16-mer peptides were plated in solid phase in microtiter wells, increasing concentrations of each 16-mer peptide were incubated with the 4D12G1 mAb in liquid phase, and ELISAs were performed as described above. The binding site of the 4D12G1 mAb was confirmed by competitive ELISA using overlapping peptides containing alanine substitutions for each amino acid spanning the immunoreactive region of AMEIR2-ED. The substituted peptides were used in liquid phase with the 4D12G1 mAb to determine binding inhibition to rhAMHR2-ED in solid phase. The AMHR2-ED binding sequence of the 4D12G1 mAb and the critical AMHR2-ED residues for such binding were confirmed by SPOT peptide arrays. Peptides spanning the AMHR2-ED 9-40 immunoreactive region and ranging from 4-16-mers in length were synthesized >90% pure on cellulose membranes (JPT Peptide Technologies, Berlin, Germany), treated overnight with blocking buffer (Thermo Fisher), followed by treatment with the 4D12G1 mAb at 1.0 μg/ml for 3 hours at room temperature, followed by three washes with PBS containing 0.01% Tween-20 (Bio-Rad). The membranes were then treated with a 1:10,000 dilution of an HRP-conjugated rabbit anti-mouse IgG (MilliporeSigma) followed by three washes with PBS containing 0.01% Tween-20 (Bio-Rad). Bound antibody was detected using the HyGLO chemiluminescence system (Thomas Scientific).
(§2) An overlapping series of 16-mer peptides spanning the entire 132 amino acid sequence of human AMHR2-ED (FIG. 3A) with moving single amino acid shifts were plated for direct ELISA testing using the 4D12G1 mAb as primary antibody. […] To determine amino acids recognized by the 4D12G1 mAb, an overlapping series of peptides spanning the immunoreactive sequence comprising AMHR2-ED 13-30 were synthesized with alanine substitutions at each N-terminal residue or with glycine substitutions for any native N-terminal alanine.

16-31 = target: T2, 16-31; experiment: as above
T2 construct: overlapping 16-mer of human AMHR2-ED; also called p16-31; AMHR2-ED 16-31 16-mer peptide
T2 peptide: RGSTKTLGELLDTGTE
Protocol: as §1, §2

14-29 = target: T3, 14-29; experiment: as above
T3 construct: overlapping 16-mer of human AMHR2-ED; also called p14-29; AMHR2-ED 14-29 16-mer peptide
T3 peptide: GVRGSTKTLGELLDTG
Protocol: as §1, §2

p22-37 = target: T4, p22-37; experiment: SPOT peptide array on cellulose membrane, 4D12G1 at 1.0 µg/ml, chemiluminescence
T4 construct: SPOT array peptide on cellulose membrane; also called AMHR2-ED 22-37 16-mer peptide
T4 peptide: LGELLDTGTELPRAIR
Protocol: (§3) The AMHR2-ED binding sequence of the 4D12G1 mAb and the critical AMHR2-ED residues for such binding were confirmed by SPOT peptide arrays. Peptides spanning the AMHR2-ED 9-40 immunoreactive region and ranging from 4-16-mers in length were synthesized >90% pure on cellulose membranes (JPT Peptide Technologies, Berlin, Germany), treated overnight with blocking buffer (Thermo Fisher), followed by treatment with the 4D12G1 mAb at 1.0 μg/ml for 3 hours at room temperature, followed by three washes with PBS containing 0.01% Tween-20 (Bio-Rad). The membranes were then treated with a 1:10,000 dilution of an HRP-conjugated rabbit anti-mouse IgG (MilliporeSigma) followed by three washes with PBS containing 0.01% Tween-20 (Bio-Rad). Bound antibody was detected using the HyGLO chemiluminescence system (Thomas Scientific).
(§4) An overlapping series of 16-mer peptides spanning the entire 132 amino acid sequence of human AMHR2-ED (FIG. 3A) with moving single amino acid shifts were plated for direct ELISA testing using the 4D12G1 mAb as primary antibody. […] To determine amino acids recognized by the 4D12G1 mAb, an overlapping series of peptides spanning the immunoreactive sequence comprising AMHR2-ED 13-30 were synthesized with alanine substitutions at each N-terminal residue or with glycine substitutions for any native N-terminal alanine. These peptides were used in competitive ELISAs to determine which residues inhibit binding of the 4D12G1 mAb with solid phase rhAMHR2-ED. […] To determine the minimal AMHR2-ED sequence involved in the binding of the 4D12G1 mAb, SPOT peptide arrays were generated spanning the immunoreactive region of AMHR2-ED. Peptides ranging from 4-16-mers in length were immobilized on cellulose membranes and treated with the 4D12G1 mAb. Bound antibody was detected by chemiluminescence.

p20-35 = target: T5, p20-35; experiment: as above
T5 construct: SPOT array peptide on cellulose membrane; also called AMHR2-ED 20-35 16-mer peptide
T5 peptide: KTLGELLDTGTELPRA
Protocol: as §3, §4

p21-36 = target: T6, p21-36; experiment: as above
T6 construct: SPOT array peptide on cellulose membrane; also called AMHR2-ED 21-36 16-mer peptide
T6 peptide: TLGELLDTGTELPRAI
Protocol: as §3, §4

p20-26 = target: T7, p20-26; experiment: as above
T7 construct: SPOT array peptide on cellulose membrane; residues 20-26 of AMHR2-ED; also called AMHR2-ED 20-26 7-mer peptide; KTLGELL
T7 peptide: KTLGELL
Protocol: as §3, §4

Measured: binding result

B1: 4D12G1 mAb (antibody, IgG1, V domains shown)
VH: DVKLVESGGGLVKLGGSLKLSCAASGFTFSRYFMSWVRQTPEKRLELVAAINSDGGRTYYPDTVKGRFTISRDNAKNTLYLQMSSLKSEDTALYYCTRHIYSYYEDYFDYWGQGTTLTVSS
VL: DVVMTQTPLSLPVSLGDQASISCRSSQSLVHSNGNTYLHWYLQKPGQSPKLLIYKVSKRFSGVPDRFSGSGSGTDFTLKISRVEAEDLGVYFCSQSTHVYTFGGGTKLEIK
notes: also called 4D12G1 IgG1 mAb
binds: all assays above
